According to doi:10.1101/2023.02.23.529735 (bioRxiv, 2023):

Tests used:
FRET or BRET [1] = biological target: the molecule itself; assay: FRET or BRET
FRET or BRET [2] = biological target: the molecule itself; assay: FRET or BRET; remark: listed apart in the source

Row | Protein | FRET ratio (acceptor/donor) in foci, no additive (FRET or BRET [1]) | FRET ratio (acceptor/donor) in the solution outside the foci, no additive (FRET or BRET [1]) | FRET/Donor ratio, after a 6 min heat shock at 42 °C (FRET or BRET [2]) | FRET/Donor ratio, exponentially growing cells (FRET or BRET [2]) | FRET/Donor ratio, spheroplasts returned from 880 mOsm to 220 mOsm (FRET or BRET [2])
1 | H-NS-VC (Histone-like Nucleoid Structuring protein H-NS fused at its C-terminus to the mVenus-mCherry VC domain) (natural protein, E. coli, UniProt P0ACF8 1-137, looked up) MGSEALKILNNIRTLRAQARECTLETLEEMLEKLEVVVNERREEESAAAAEVEERTRKLQQYREMLIADGIDPNELLNSLAAVKSGTKAKRAQRPAKYSYVDENGETKTWTGQGRTPAVIKKAMDEQGKSLDDFLIKQ | 0.07 | 0.082 | 0.162 | 0.105 | 0.181
2 | H-NS86-VC (H-NS amino acids 1-86 fused at the C-terminus to the mVenus-mCherry VC domain) (domain or fragment, E. coli, UniProt P0ACF8 1-86, looked up) MVSEALKILNNIRTLRAQARECTLETLEEMLEKLEVVVNERREEESAAAAEVEERTRKLQQYREMLIADGIDPNELLNSLAAVKSGT | 0.073 | 0.068 |  | 0.132 | 
3 | H-NS64-VC (H-NS amino acids 1-64 fused at the C-terminus to the mVenus-mCherry VC domain) (domain or fragment, E. coli, UniProt P0ACF8 1-64, looked up) MVSEALKILNNIRTLRAQARECTLETLEEMLEKLEVVVNERREEESAAAAEVEERTRKLQQYREM |  |  |  | 0.126 | 
